From the supplement of paper PMC10724198
± gives the standard deviation of the averaged measurements.

Key:
[1] = test system: Saccharomyces cerevisiae; test: protein stability index of tFT-peptide fusion in wild type (PSI (0-1 scale)); higher = more stable (slower turnover); conditions: genetic background: wild type
Description: (§1)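 MPS profiling in S. cerevisiae of two library types built from selected 12-aa C-degron peptides (IN1, IN2, LN1, LN3, VN2, R1-R5, W1-W3, Atg1 and Rpa12 C-termini): saturation mutagenesis libraries and C-terminal +1 capping libraries (13 aa). Each peptide is fused to the C-terminus of a sfGFP-mCherry timer, after a GGGS linker. Cells are FACS-sorted into 8 mCherry/sfGFP bins and sequenced. PSI runs from 0 (unstable) to 1 (stable), measured once in wild type and in the das1Δ or doa10Δ background.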

[2] = test system: Saccharomyces cerevisiae; test: protein stability index of tFT-peptide fusion in deletion strain of DAS1 (PSI (0-1 scale)); higher = more stable (slower turnover)
Description: as §1

[3] = test system: Saccharomyces cerevisiae; test: protein stability index of tFT-peptide fusion (C-terminal peptide) (PSI (0-1 scale)); higher = more stable (slower turnover); conditions: temperature: 30 C
Description: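 MPS profiling in S. cerevisiae of the yeast C-terminome library: the last 12 aa of each annotated ORF are fused to the C-terminus of a sfGFP-mCherry timer, after a GGGS linker. Cells are FACS-sorted into 8 mCherry/sfGFP bins and deep-sequenced. PSI runs from 0 (unstable) to 1 (stable); wild type and das1Δ backgrounds, two technical replicates each.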

[4] = genetic background: das1 deletion
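Throughout, for protein stability index of tFT-peptide fusion in deletion strain of DAS1: PSI is a weighted mean of each variant's read distribution over the sorted stability bins, computed only for variants having over 10 reads in total.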
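Throughout, for protein stability index of tFT-peptide fusion in wild type: PSI derived as read-weighted mean over the 8 sorting bins, only variants exceeding 10 total reads kept, mCherry placed adjacent to the peptide and sfGFP distal.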

Sequence: LKFLRQKMNHQN
- protein stability index [1]: 0.166
- protein stability index [2]: 0.697

Sequence: ARWRVGLWRWAS
- protein stability index [1]: 0.0999
- protein stability index [2]: 0.694

Sequence: FSMRWTFRYWVNC
- protein stability index [1]: 0.114
- protein stability index [2]: 0.508

Sequence: KKHKKGQKQKINN
- protein stability index [1]: 0.231
- protein stability index [2]: 0.659

Sequence: FSMRWTFRYWYN
- protein stability index [1]: 0.149
- protein stability index [2]: 0.48

Sequence: FSMRHTFRYWVN
- protein stability index [1]: 0.0782
- protein stability index [2]: 0.588

Sequence: ARWRVGLWHGAS
- protein stability index [1]: 0.624
- protein stability index [2]: 0.665

Sequence: KKHRKGQKQKIN
- protein stability index [1]: 0.109
- protein stability index [2]: 0.678

Sequence: RLIQPLPVQFLM
- protein stability index [1]: 0.13
- protein stability index [2]: 0.595

Sequence: VVVYLSCVACIN
- protein stability index [1]: 0.0234
- protein stability index [2]: 0.0435

Sequence: LVVYLSCVMCIN
- protein stability index [1]: 0.0111
- protein stability index [2]: 0.0156

Sequence: CTSCGIKFRTNN
- protein stability index [1]: 0.376
- protein stability index [2]: 0.688

Sequence: FSMRWKFRYWVN
- protein stability index [1]: 0.0643
- protein stability index [2]: 0.577

Sequence: VRGAVGGWRSVG
- protein stability index [1]: 0.342
- protein stability index [2]: 0.664

Sequence: LKILRQKMKHQN
- protein stability index [1]: 0.568
- protein stability index [2]: 0.687

Sequence: PSMAASFWRVVG
- protein stability index [1]: 0.126
- protein stability index [2]: 0.699

Sequence: KKHKKGQKQIIN
- protein stability index [1]: 0.642
- protein stability index [2]: 0.584

Sequence: ARWRVGLWKGAS
- protein stability index [1]: 0.64
- protein stability index [2]: 0.671

Sequence: PDKRIHLIKLLN
- protein stability index [1]: 0.0865
- protein stability index [2]: 0.589

Sequence: LVVYLCCVACIN
- protein stability index [1]: 0.0154
- protein stability index [2]: 0.0405

Sequence: VRGAVGGIRLVG
- protein stability index [1]: 0.589
- protein stability index [2]: 0.682

Sequence: FSMRWTFRKWVN
- protein stability index [1]: 0.314
- protein stability index [2]: 0.634

Sequence: FSMRWTWRYWVN
- protein stability index [1]: 0.0598
- protein stability index [2]: 0.625

Sequence: FSGRWTFRYWVN
- protein stability index [1]: 0.0867
- protein stability index [2]: 0.626

Sequence: ARWLVGLWRGAS
- protein stability index [1]: 0.419
- protein stability index [2]: 0.706

Sequence: ELANILESDITL [CIN1 C-terminal 12 aa]
- protein stability index [3, 4]: 0.70881 ± 0.00043
- protein stability index ([3]; genetic background: wild type): 0.712 ± 0.022

Sequence: GGSRGGFRGGRR [GAR1 C-terminal 12 aa]
- protein stability index [3, 4]: 0.685 ± 0.041
- protein stability index ([3]; genetic background: wild type): 0.707 ± 0.041

Sequence: EGPRGETIVERF [YJL047C-A C-terminal 12 aa]
- protein stability index [3, 4]: 0.698 ± 0.008
- protein stability index ([3]; genetic background: wild type): 0.6955 ± 0.0027

Sequence: SSVAFSKNLECV [YGR139W C-terminal 12 aa]
- protein stability index [3, 4]: 0.7073 ± 0.0066
- protein stability index ([3]; genetic background: wild type): 0.696 ± 0.038

Sequence: EECYLHSESFGY [FRE7 C-terminal 12 aa]
- protein stability index [3, 4]: 0.68 ± 0.028
- protein stability index ([3]; genetic background: wild type): 0.664 ± 0.028

Sequence: VLLTILLFIQAY [SPO19 C-terminal 12 aa]
- protein stability index [3, 4]: 0.1801 ± 0.0012
- protein stability index ([3]; genetic background: wild type): 0.19 ± 0.0039

Sequence: LNNLSMERSIRL [GIP3 C-terminal 12 aa]
- protein stability index [3, 4]: 0.715 ± 0.015
- protein stability index ([3]; genetic background: wild type): 0.666 ± 0.014

Sequence: QAADKRIDRNNP [SRD1 C-terminal 12 aa]
- protein stability index [3, 4]: 0.7185 ± 0.0037
- protein stability index ([3]; genetic background: wild type): 0.702 ± 0.022

Sequence: ATFFRYLSNIFT [AGP3 C-terminal 12 aa]
- protein stability index [3, 4]: 0.723 ± 0.0077
- protein stability index ([3]; genetic background: wild type): 0.698 ± 0.0078

Sequence: LLCFRPTRGCGP [YCL041C C-terminal 12 aa]
- protein stability index [3, 4]: 0.7091 ± 0.0046
- protein stability index ([3]; genetic background: wild type): 0.687 ± 0.013

Sequence: NLLRFIVGVDVL [YDR426C C-terminal 12 aa]
- protein stability index [3, 4]: 0.639 ± 0.0092
- protein stability index ([3]; genetic background: wild type): 0.638 ± 0.0082

Sequence: LAWNPNLSAKRF [PRP46 C-terminal 12 aa]
- protein stability index [3, 4]: 0.71 ± 0.031
- protein stability index ([3]; genetic background: wild type): 0.705 ± 0.021

Sequence: NQFSQPPSNVEF [SCD6 C-terminal 12 aa]
- protein stability index [3, 4]: 0.684 ± 0.025
- protein stability index ([3]; genetic background: wild type): 0.697 ± 0.019

Sequence: KKARKMPTWVKR [MRPS9 C-terminal 12 aa]
- protein stability index [3, 4]: 0.693 ± 0.032
- protein stability index ([3]; genetic background: wild type): 0.65752 ± 7.3e-05

Sequence: HSSYDRPMIIKN [UBP15 C-terminal 12 aa]
- protein stability index [3, 4]: 0.685 ± 0.056
- protein stability index ([3]; genetic background: wild type): 0.662 ± 0.025

Sequence: YSKHLKRLLPYH [MRP35 C-terminal 12 aa]
- protein stability index [3, 4]: 0.6788 ± 0.0019
- protein stability index ([3]; genetic background: wild type): 0.712 ± 0.071

Sequence: AVHLQAIDLLNC [PIR1 C-terminal 12 aa]
- protein stability index [3, 4]: 0.714 ± 0.024
- protein stability index ([3]; genetic background: wild type): 0.672 ± 0.01

Sequence: WVDAFGIIYGAL [YIL108W C-terminal 12 aa]
- protein stability index [3, 4]: 0.7436 ± 0.0063
- protein stability index ([3]; genetic background: wild type): 0.7232 ± 0.0018

Sequence: SGPVEELVSPSK [IRC8 C-terminal 12 aa]
- protein stability index [3, 4]: 0.7034 ± 0.0033
- protein stability index ([3]; genetic background: wild type): 0.685 ± 0.032

Sequence: RKFSSSTNLAKF [TOS8 C-terminal 12 aa]
- protein stability index [3, 4]: 0.779 ± 0.039
- protein stability index ([3]; genetic background: wild type): 0.81 ± 0.012

Sequence: MHSNFQNLFNLK [CLB5 C-terminal 12 aa]
- protein stability index [3, 4]: 0.708 ± 0.026
- protein stability index ([3]; genetic background: wild type): 0.707 ± 0.026

Sequence: ETLAKLREQGLM [TOM70 C-terminal 12 aa]
- protein stability index [3, 4]: 0.6797 ± 0.0058
- protein stability index ([3]; genetic background: wild type): 0.692 ± 0.015

Sequence: KLIHIPIRYVIV [SSS1 C-terminal 12 aa]
- protein stability index [3, 4]: 0.424 ± 0.03
- protein stability index ([3]; genetic background: wild type): 0.3647 ± 0.00092

Sequence: PLPDLDEDDGEE [DOM34 C-terminal 12 aa]
- protein stability index [3, 4]: 0.686 ± 0.0069
- protein stability index ([3]; genetic background: wild type): 0.704 ± 0.041

Sequence: FFMIMVMVINFI [FIG2 C-terminal 12 aa]
- protein stability index [3, 4]: 0.195 ± 0.03
- protein stability index ([3]; genetic background: wild type): 0.199 ± 0.0042

Sequence: NKTNNKKKHGKK [CLU1 C-terminal 12 aa]
- protein stability index [3, 4]: 0.698 ± 0.044
- protein stability index ([3]; genetic background: wild type): 0.713 ± 0.024

Sequence: ANLFSSKKKAKL [RSB1 C-terminal 12 aa]
- protein stability index [3, 4]: 0.803 ± 0.058
- protein stability index ([3]; genetic background: wild type): 0.822 ± 0.061

Sequence: CYTEEEWSKIVV [BOL2 C-terminal 12 aa]
- protein stability index [3, 4]: 0.7072 ± 0.003
- protein stability index ([3]; genetic background: wild type): 0.717 ± 0.019

Sequence: TYSYTIDHPVLT [NUP100 C-terminal 12 aa]
- protein stability index [3, 4]: 0.659 ± 0.021
- protein stability index ([3]; genetic background: wild type): 0.659 ± 0.034

Sequence: QDELDAMKEMGF [CSM3 C-terminal 12 aa]
- protein stability index [3, 4]: 0.698 ± 0.023
- protein stability index ([3]; genetic background: wild type): 0.699 ± 0.049

Sequence: AVKINRNGKPRI [TAO3 C-terminal 12 aa]
- protein stability index [3, 4]: 0.698 ± 0.014
- protein stability index ([3]; genetic background: wild type): 0.6846 ± 0.0048

Sequence: TREPISYKLDIQ [ERO1 C-terminal 12 aa]
- protein stability index [3, 4]: 0.678 ± 0.044
- protein stability index ([3]; genetic background: wild type): 0.67 ± 0.024

Sequence: HFQYKGKPSRRF [BUB1 C-terminal 12 aa]
- protein stability index [3, 4]: 0.693 ± 0.012
- protein stability index ([3]; genetic background: wild type): 0.685 ± 0.035

Sequence: GHLSSSRRRLRT [SUV3 C-terminal 12 aa]
- protein stability index [3, 4]: 0.7217 ± 0.0043
- protein stability index ([3]; genetic background: wild type): 0.7 ± 0.034

Sequence: QEISYKFSKTYS [IME1 C-terminal 12 aa]
- protein stability index [3, 4]: 0.676 ± 0.021
- protein stability index ([3]; genetic background: wild type): 0.664 ± 0.038

Sequence: PVSESSSPNSWP [YDR230W C-terminal 12 aa]
- protein stability index [3, 4]: 0.768 ± 0.012
- protein stability index ([3]; genetic background: wild type): 0.706 ± 0.02

Sequence: GASAEDNTHPDE [NAB6 C-terminal 12 aa]
- protein stability index [3, 4]: 0.694 ± 0.011
- protein stability index ([3]; genetic background: wild type): 0.681 ± 0.046

Sequence: VKIATSILGKKL [PGS1 C-terminal 12 aa]
- protein stability index [3, 4]: 0.68478 ± 0.00021
- protein stability index ([3]; genetic background: wild type): 0.687 ± 0.025

Sequence: SYKWLKRETSPL [FRA1 C-terminal 12 aa]
- protein stability index [3, 4]: 0.712 ± 0.024
- protein stability index ([3]; genetic background: wild type): 0.689 ± 0.022

Sequence: NPADYLLEFGSG [RTG3 C-terminal 12 aa]
- protein stability index [3, 4]: 0.7103 ± 0.0023
- protein stability index ([3]; genetic background: wild type): 0.72 ± 0.029

Sequence: SALNKIKADEKK [ACO1 C-terminal 12 aa]
- protein stability index [3, 4]: 0.689 ± 0.024
- protein stability index ([3]; genetic background: wild type): 0.684 ± 0.024

Sequence: AYVLFYHRVYGV [DOA4 C-terminal 12 aa]
- protein stability index [3, 4]: 0.691 ± 0.011
- protein stability index ([3]; genetic background: wild type): 0.648 ± 0.026

Sequence: PTPPGLQGPPGL [MSL5 C-terminal 12 aa]
- protein stability index [3, 4]: 0.692 ± 0.018
- protein stability index ([3]; genetic background: wild type): 0.693 ± 0.0097

Sequence: SDQKGGRSVSTS [YLR001C C-terminal 12 aa]
- protein stability index [3, 4]: 0.6896 ± 0.0021
- protein stability index ([3]; genetic background: wild type): 0.734 ± 0.017
